Source: publication PMC9267055
Blank lines part the entries; values can stand above or below the molecule they belong to.

Experiments:
[1] = molecular target: GPI-APs (transferred from wildtype EL cells to ManN-treated human adipocytes) (human (endogenous in K562 EL cells))
[2] = molecular target: GPI-APs (transferred from wildtype EL cells to ManN-treated human adipocytes) (human (endogenous in K562 EL cells)); remark: listed apart in the source

decrease in transfer of GPI-APs from wildtype EL cells to ManN-treated human adipocytes in transwell co-culture (1 week), read by SAW sensing of acceptor PM; BSA 50 mg/mL, final dilution 1:75 [1]: 35%
Molecule: BSA (fraction V, defatted) (from UniProt P02769 25-607) (natural protein)

transfer of GPI-APs from wildtype EL cells to ManN-treated human adipocytes in transwell co-culture (1 week), read by SAW sensing of acceptor PM; GPLD1 100 mU/mL (% of serum inhibition) [2]: 70
B1: serum GPLD1 (enzyme)
chain: CGLSTHVEIGHRALEFLQLHNGRVNYRELLLEHQDAYQAGIVFPDCFYPSICKGGKFHDVSESTHWTPFLNASVHYIRENYPLPWEKDTEKLVAFLFGITSHMAADVSWHSLGLEQGFLRTMGAIDFHGSYSEAHSAGDFGGDVLSQFEFNFNYLARRWYVPVKDLLGIYEKLYGRKVITENVIVDCSHIQFLEMYGEMLAVSKLYPTYSTKSPFLVEQFQEYFLGGLDDMAFWSTNIYHLTSFMLENGTSDCNLPENPLFIACGGQQNHTQGSKMQKNDFHRNLTTSLTESVDRNINYTERGVFFSVNSWTPDSMSFIYKALERNIRTMFIGGSQLSQKHVSSPLASYFLSFPYARLGWAMTSADLNQDGHGDLVVGAPGYSRPGHIHIGRVYLIYGNDLGLPPVDLDLDKEAHRILEGFQPSGRFGSALAVLDFNVDGVPDLAVGAPSVGSEQLTYKGAVYVYFGSKQGGMSSSPNITISCQDIYCNLGWTLLAADVNGDSEPDLVIGSPFAPGGGKQKGIVAAFYSGPSLSDKEKLNVEAANWTVRGEEDFSWFGYSLHGVTVDNRTLLLVGSPTWKNASRLGHLLHIRDEKKSLGRVYGYFPPNGQSWFTISGDKAMGKLGTSLSSGHVLMNGTLKQVLLVGAPTYDDVSKVAFLTVTLHQGGATRMYALTSDAQPLLLSTFSGDRRFSRFGGVLHLSDLDDDGLDEIIMAAPLRIADVTSGLIGGEDGRVYVYNGKETTLGDMTGKCKSWITPCPEEKAQYVLISPEASSRFGSSLITVRSKAKNQVVIAAGRSSLGARLSGALHVYSLGSD
